Results reported in patent US20200208162.

How the values were obtained:
[1] = test system: TLNmir604S3Fw TALEN (encoded by cTNmir604Fw3-01); assay: cell_activity; conditions: as pair with P2; maize NP2222 immature embryos, Chry5d2 delivery of TALEN and donor; 5.6-24.9% with other strain combinations; printed half-site ends in T …
[2] = test system: TLNmir604S3Rv TALEN (encoded by cTNmir604Rv3-01); assay: cell_activity; conditions: as pair with P1; maize NP2222 immature embryos, Chry5d2 delivery of TALEN and donor; 5.6-24.9% with other strain combinations

| Sequence | activity [1] [%] | activity [2] [%] |
| --- | --- | --- |
| TCCGTGCAGTGCAGTGT (double strand) [MIR604FR3 forward half-site] | 33.3 | – |
| TCCTAAACAAAGGAGGT (double strand) [MIR604FR3 reverse half-site] | – | 33.3 |
